What was measured:
[1] = biological target: MmpL3-D1 (MmpL3 residues 32 – 187) (Mycobacterium tuberculosis) (UniProt P9WJV5); assay: BLI
[2] = biological target: MmpL11-D1 (MmpL11 residues 41 – 187) (Mycobacterium tuberculosis) (UniProt P9WJT9); assay: BLI
Chain of UniProt P9WJT9 (P9WJT9 41-187): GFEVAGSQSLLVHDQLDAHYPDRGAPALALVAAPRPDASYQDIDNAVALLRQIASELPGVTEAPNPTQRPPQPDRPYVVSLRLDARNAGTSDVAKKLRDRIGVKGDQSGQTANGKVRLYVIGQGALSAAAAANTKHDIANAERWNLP

Chain of UniProt P9WJV5 (P9WJV5 32-187): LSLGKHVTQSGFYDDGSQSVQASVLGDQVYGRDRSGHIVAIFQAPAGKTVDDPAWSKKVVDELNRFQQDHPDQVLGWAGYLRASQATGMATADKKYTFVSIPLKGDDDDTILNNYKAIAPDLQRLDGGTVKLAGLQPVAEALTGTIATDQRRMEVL

Substance | Kd [1] [µM] | Kd [2] [µM]
MmpL3-D2 (MmpL3 residues 419 – 560) (from UniProt P9WJV5 419-560) (domain or fragment) | 4.1 | 
MmpL11-D2 (MmpL11 residues 390 – 529) (from UniProt P9WJT9 390-529) (domain or fragment) |  | 4.5

— publication PMC4546533
